Measured values from the supplement of paper PMC10567573.

B1: ZNF263 (parent)
chain: FGGNPRFLSLHRAHLGEEAHKCLE
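Further: lentivirally expressed fusions sorted by FACS into six bins by GFP to DsRed ratio, PSI derived from sequencing read proportions per bin multiplied by bin number.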

Variants of: B1
Assay: protein stability index of a GFP-peptide fusion (GPS, HEK-293T) (PSI 1-6); higher = more stable
Conditions: c terminus: a fixed tail appended
For FCGNPRFLSLHRAHLGEEAHKCLE [G2C], the protein stability index was 1.61.
For FPGNPRFLSLHRAHLGEEAHKCLE [G2P], the protein stability index was 2.13.
With FYGNPRFLSLHRAHLGEEAHKCLE [G2Y] the protein stability index was 2.32.
FFGNPRFLSLHRAHLGEEAHKCLE [G2F] gave a protein stability index of 2.55.
Work on FQGNPRFLSLHRAHLGEEAHKCLE [G2Q] yielded a protein stability index of 1.38.
Variant FIGNPRFLSLHRAHLGEEAHKCLE [G2I] has a protein stability index of 1.64.
Variant FHGNPRFLSLHRAHLGEEAHKCLE [G2H] has a protein stability index of 1.79.
FDGNPRFLSLHRAHLGEEAHKCLE [G2D] gave a protein stability index of 3.68.
Work on FSGNPRFLSLHRAHLGEEAHKCLE [G2S] yielded a protein stability index of 1.74.
Work on FNGNPRFLSLHRAHLGEEAHKCLE [G2N] yielded a protein stability index of 2.22.
Work on FLGNPRFLSLHRAHLGEEAHKCLE [G2L] yielded a protein stability index of 2.25.
Work on FMGNPRFLSLHRAHLGEEAHKCLE [G2M] yielded a protein stability index of 2.35.
In the case of FRGNPRFLSLHRAHLGEEAHKCLE [G2R], the protein stability index is reported as 3.66.
With FTGNPRFLSLHRAHLGEEAHKCLE [G2T] the protein stability index was 3.64.
FEGNPRFLSLHRAHLGEEAHKCLE [G2E] showed a protein stability index of 3.12.
In the case of FAGNPRFLSLHRAHLGEEAHKCLE [G2A], the protein stability index is reported as 1.59.
Variant FWGNPRFLSLHRAHLGEEAHKCLE [G2W] has a protein stability index of 2.24.
FKGNPRFLSLHRAHLGEEAHKCLE [G2K] gave a protein stability index of 2.87.
FGGNPRFESLHRAHLGEEAHKCLE [L8E] gave a protein stability index of 2.54.
With FGGNPRFCSLHRAHLGEEAHKCLE [L8C] the protein stability index was 1.4.
Variant FGGNPRFKSLHRAHLGEEAHKCLE [L8K] has a protein stability index of 2.53.
Work on FGGNPRFFSLHRAHLGEEAHKCLE [L8F] yielded a protein stability index of 2.16.
FGGNPRFNSLHRAHLGEEAHKCLE [L8N] showed a protein stability index of 2.25.
FGGNPRFHSLHRAHLGEEAHKCLE [L8H] showed a protein stability index of 1.86.
For FGGNPRFASLHRAHLGEEAHKCLE [L8A], the protein stability index was 2.43.
For FGGNPRFISLHRAHLGEEAHKCLE [L8I], the protein stability index was 1.41.
FGGNPRFDSLHRAHLGEEAHKCLE [L8D] showed a protein stability index of 3.1.
FGGNPRFMSLHRAHLGEEAHKCLE [L8M] gave a protein stability index of 2.25.
FGGNPRFGSLHRAHLGEEAHKCLE [L8G] showed a protein stability index of 2.1.
Work on FGGDPRFLSLHRAHLGEEAHKCLE [N4D] yielded a protein stability index of 2.13.
For FGGCPRFLSLHRAHLGEEAHKCLE [N4C], the protein stability index was 1.62.
FGGFPRFLSLHRAHLGEEAHKCLE [N4F] gave a protein stability index of 2.15.
Work on FGGTPRFLSLHRAHLGEEAHKCLE [N4T] yielded a protein stability index of 1.66.
Variant FGGKPRFLSLHRAHLGEEAHKCLE [N4K] has a protein stability index of 2.31.
In the case of FGGGPRFLSLHRAHLGEEAHKCLE [N4G], the protein stability index is reported as 1.56.
FGGWPRFLSLHRAHLGEEAHKCLE [N4W] gave a protein stability index of 2.37.
With FGGQPRFLSLHRAHLGEEAHKCLE [N4Q] the protein stability index was 1.51.
Variant FGGPPRFLSLHRAHLGEEAHKCLE [N4P] has a protein stability index of 2.61.
FGGRPRFLSLHRAHLGEEAHKCLE [N4R] showed a protein stability index of 2.46.
FGGAPRFLSLHRAHLGEEAHKCLE [N4A] gave a protein stability index of 2.87.
FGGIPRFLSLHRAHLGEEAHKCLE [N4I] showed a protein stability index of 2.24.
For FGGLPRFLSLHRAHLGEEAHKCLE [N4L], the protein stability index was 2.32.
Variant FGGHPRFLSLHRAHLGEEAHKCLE [N4H] has a protein stability index of 1.97.
With FGGEPRFLSLHRAHLGEEAHKCLE [N4E] the protein stability index was 2.26.
FGGMPRFLSLHRAHLGEEAHKCLE [N4M] gave a protein stability index of 1.03.
FGGYPRFLSLHRAHLGEEAHKCLE [N4Y] gave a protein stability index of 1.53.
FGGSPRFLSLHRAHLGEEAHKCLE [N4S] showed a protein stability index of 1.14.
FGGVPRFLSLHRAHLGEEAHKCLE [N4V] gave a protein stability index of 2.44.
For AGGNPRFLSLHRAHLGEEAHKCLE [F1A], the protein stability index was 3.45.
With RGGNPRFLSLHRAHLGEEAHKCLE [F1R] the protein stability index was 3.69.
MGGNPRFLSLHRAHLGEEAHKCLE [F1M] gave a protein stability index of 3.81.
For QGGNPRFLSLHRAHLGEEAHKCLE [F1Q], the protein stability index was 3.38.
With EGGNPRFLSLHRAHLGEEAHKCLE [F1E] the protein stability index was 3.61.
With HGGNPRFLSLHRAHLGEEAHKCLE [F1H] the protein stability index was 3.19.
Variant TGGNPRFLSLHRAHLGEEAHKCLE [F1T] has a protein stability index of 3.48.
For NGGNPRFLSLHRAHLGEEAHKCLE [F1N], the protein stability index was 3.94.
For CGGNPRFLSLHRAHLGEEAHKCLE [F1C], the protein stability index was 2.63.
Work on LGGNPRFLSLHRAHLGEEAHKCLE [F1L] yielded a protein stability index of 3.18.
Variant SGGNPRFLSLHRAHLGEEAHKCLE [F1S] has a protein stability index of 3.69.
VGGNPRFLSLHRAHLGEEAHKCLE [F1V] gave a protein stability index of 3.87.
For IGGNPRFLSLHRAHLGEEAHKCLE [F1I], the protein stability index was 3.51.
Work on DGGNPRFLSLHRAHLGEEAHKCLE [F1D] yielded a protein stability index of 4.17.
WGGNPRFLSLHRAHLGEEAHKCLE [F1W] showed a protein stability index of 1.99.
With GGGNPRFLSLHRAHLGEEAHKCLE [F1G] the protein stability index was 3.98.
KGGNPRFLSLHRAHLGEEAHKCLE [F1K] showed a protein stability index of 2.95.
Variant PGGNPRFLSLHRAHLGEEAHKCLE [F1P] has a protein stability index of 3.7.
In the case of YGGNPRFLSLHRAHLGEEAHKCLE [F1Y], the protein stability index is reported as 1.47.
FGGNPCFLSLHRAHLGEEAHKCLE [R6C] showed a protein stability index of 3.09.
With FGGNPVFLSLHRAHLGEEAHKCLE [R6V] the protein stability index was 3.33.
In the case of FGGNPSFLSLHRAHLGEEAHKCLE [R6S], the protein stability index is reported as 1.79.
With FGGNPNFLSLHRAHLGEEAHKCLE [R6N] the protein stability index was 1.89.
Work on FGGNPIFLSLHRAHLGEEAHKCLE [R6I] yielded a protein stability index of 2.58.
With FGGNPHFLSLHRAHLGEEAHKCLE [R6H] the protein stability index was 2.37.
For FGGNPTFLSLHRAHLGEEAHKCLE [R6T], the protein stability index was 2.89.
With FGGNPDFLSLHRAHLGEEAHKCLE [R6D] the protein stability index was 1.83.
Variant FGGNPPFLSLHRAHLGEEAHKCLE [R6P] has a protein stability index of 2.73.
In the case of FGGNPWFLSLHRAHLGEEAHKCLE [R6W], the protein stability index is reported as 5.27.
Variant FGGNPGFLSLHRAHLGEEAHKCLE [R6G] has a protein stability index of 1.74.
For FGGNPAFLSLHRAHLGEEAHKCLE [R6A], the protein stability index was 3.22.
With FGGNPEFLSLHRAHLGEEAHKCLE [R6E] the protein stability index was 1.3.
Work on FGGNPMFLSLHRAHLGEEAHKCLE [R6M] yielded a protein stability index of 2.5.
FGGNPLFLSLHRAHLGEEAHKCLE [R6L] gave a protein stability index of 2.62.
Work on FGGNPKFLSLHRAHLGEEAHKCLE [R6K] yielded a protein stability index of 2.77.
In the case of FGGNPFFLSLHRAHLGEEAHKCLE [R6F], the protein stability index is reported as 2.25.
Work on FGGNPQFLSLHRAHLGEEAHKCLE [R6Q] yielded a protein stability index of 1.82.
Work on FGGNFRFLSLHRAHLGEEAHKCLE [P5F] yielded a protein stability index of 1.62.
In the case of FGGNARFLSLHRAHLGEEAHKCLE [P5A], the protein stability index is reported as 2.03.
For FGGNKRFLSLHRAHLGEEAHKCLE [P5K], the protein stability index was 1.56.
FGGNMRFLSLHRAHLGEEAHKCLE [P5M] gave a protein stability index of 1.96.
Work on FGGNVRFLSLHRAHLGEEAHKCLE [P5V] yielded a protein stability index of 1.96.
Work on FGGNIRFLSLHRAHLGEEAHKCLE [P5I] yielded a protein stability index of 1.52.
FGGNERFLSLHRAHLGEEAHKCLE [P5E] showed a protein stability index of 2.19.
FGGNWRFLSLHRAHLGEEAHKCLE [P5W] showed a protein stability index of 1.96.
With FGGNYRFLSLHRAHLGEEAHKCLE [P5Y] the protein stability index was 1.57.
